Among the data in the RNAGym collection of RNA variant scans (doi:10.7554/elife.90254) are self-cleavage values, retold here.

B1: LINE1-mini (parent)
chain: GGCAGAGCUCAACACAGCGUGGCAAAGUGGCUGUGGCUAGACUGCC

The variants in the data set derive from B1. Kind of data set: self-cleavage, relative activity (ratio to wild type); higher = more cleavage; in vitro, sequencing; the parent is a self-cleaving ribozyme.
As to GGCAGAGCUCAUCACAGCGUGGCGAAGUGGCUGUGGCUAGACUGCC, the self-cleavage is 0.39. For the variant GGCAGAGCUCAUCACAGCGUGGCUAAGUGGCUGUGGCUAGACUGCC, the self-cleavage came out at 0.31.

As to GGCAGAGCUCAUCACAGCGUGGCCAAGUGGCUGUGGCUAGACUGCC, the self-cleavage was found to be 0.24. With GGCAGAGCUCAGCACAGCGUGGCAAACUGGCUGUGGCUAGACUGCC the figure was 0.03.

In the case of GGCAGAGCUCAGCACAGCGUGGCAAAUUGGCUGUGGCUAGACUGCC, the self-cleavage was determined as 0.04.

Regarding GGCAGAGCUCAGCACAGCGUGGCAAAAUGGCUGUGGCUAGACUGCC, the self-cleavage stood at 0.03. The result for GGCAGAGCUCAGCACAGCGUGGCAAAGUGGCUGUGGCUAGAGUGCC reads 0.02; that for GGCAGAGCUCAGCACAGCGUGGCAAAGUGGCUGUGGCUAGAAUGCC, 0.05. The result for GGCAGAGCUCAGCACAGCGUGGCAAAGUGGCUGUGGCUAGAUUGCC reads 0.07; that for GGCAGAGCUCAUCACAGCGUGGCAGAGUGGCUGUGGCUAGACUGCC, 0.4. The result for GGCAGAGCUCAUCACAGCGUGGCACAGUGGCUGUGGCUAGACUGCC reads 0.22; that for GGCAGAGCUCAUCACAGCGUGGCAUAGUGGCUGUGGCUAGACUGCC, 0.25. With GGCAGAGCUCAUCACAGCGUGGCAAAGUGGUUGUGGCUAGACUGCC, the self-cleavage is 0.09. The result for GGCAGAGCUCAUCACAGCGUGGCAAAGUGGAUGUGGCUAGACUGCC reads 0.04. The result for GGCAGAGCUCAUCACAGCGUGGCAAAGUGGGUGUGGCUAGACUGCC reads 0.04; that for GGCAGAGCUCAGCACAGCCUGGCAAAGUGGCUGUGGCUAGACUGCC, 0.02. With GGCAGAGCUCAGCACAGCUUGGCAAAGUGGCUGUGGCUAGACUGCC the figure was 0.02; with GGCAGAGCUCAGCACAGCAUGGCAAAGUGGCUGUGGCUAGACUGCC, 0.17; with GGCAGAGCUCAUCACAGCGUGGCAAAGUGGCUGUGGGUAGACUGCC, 0.06. As to GGCAGAGCUCAUCACAGCGUGGCAAAGUGGCUGUGGAUAGACUGCC, the self-cleavage turned out to be 0.05. As for GGCAGAGCUCAUCACAGCGUGGCAAAGUGGCUGUGGUUAGACUGCC, the self-cleavage was 0.02. The result for GGCAGAGCUCAUCCCAGCGUGGCAAAGUGGCUGUGGCUAGACUGCC reads 0.05. The result for GGCAGAGCUCAUCGCAGCGUGGCAAAGUGGCUGUGGCUAGACUGCC reads 0.18. The result for GGCAGAGCUCAUCUCAGCGUGGCAAAGUGGCUGUGGCUAGACUGCC reads 0.18.

On to GGCAGAGCUCAUCACAGCGUGGCAAAGUGGCUGUGGCUUGACUGCC, for which the self-cleavage turned out to be 0.16. The result for GGCAGAGCUCAUCACAGCGUGGCAAAGUGGCUGUGGCUGGACUGCC reads 0.08; that for GGCAGAGCUCAUCACAGCGUGGCAAAGUGGCUGUGGCUCGACUGCC, 0.11. With GGCAGAGCUCAGCACAGCGUGGCAAAGUGGCUCUGGCUAGACUGCC the figure was 0.03; with GGCAGAGCUCAGCACAGCGUGGCAAAGUGGCUUUGGCUAGACUGCC, 0.12; with GGCAGAGCUCAGCACAGCGUGGCAAAGUGGCUAUGGCUAGACUGCC, 0.07. The result for GGCAGAGCUCAGCACAGCGUGGCAAAGUGGCUGUAGCUAGACUGCC reads 0.02; that for GGCAGAGCUCAGCACAGCGUGGCAAAGUGGCUGUUGCUAGACUGCC, 0.04; that for GGCAGAGCUCAGCACAGCGUGGCAAAGUGGCUGUCGCUAGACUGCC, 0.05. For GGCAGAGCUCAGCACAGCGUGGCAAAGUGGCUGUGGCGAGACUGCC, the self-cleavage is 0.02.

As to GGCAGAGCUCAGCACAGCGUGGCAAAGUGGCUGUGGCCAGACUGCC, the self-cleavage is 0.04. For the variant GGCAGAGCUCAGCACAGCGUGGCAAAGUGGCUGUGGCAAGACUGCC, the self-cleavage is 0.06. In the case of GGCAGAGCUCAGCACAGCGUGGCAAAGUGGCUGUGCCUAGACUGCC, the self-cleavage is 0.04.

Turning to GGCAGAGCUCAGCACAGCGUGGCAAAGUGGCUGUGACUAGACUGCC, the self-cleavage was 0.06. With GGCAGAGCUCAGCACAGCGUGGCAAAGUGGCUGUGUCUAGACUGCC the figure was 0.03. The result for GGCAGAGCUCAGCACAGCGUGUCAAAGUGGCUGUGGCUAGACUGCC reads 0.02. With GGCAGAGCUCAGCACAGCGUGACAAAGUGGCUGUGGCUAGACUGCC the figure was 0.03; with GGCAGAGCUCAGCACAGCGUGCCAAAGUGGCUGUGGCUAGACUGCC, 0.04; with GGCAGAGCUCAUCACGGCGUGGCAAAGUGGCUGUGGCUAGACUGCC, 0.16.

Take GGCAGAGCUCAUCACCGCGUGGCAAAGUGGCUGUGGCUAGACUGCC: the self-cleavage was found to be 0.05. The result for GGCAGAGCUCAUCACUGCGUGGCAAAGUGGCUGUGGCUAGACUGCC reads 0.07. Regarding GGCAGAGCUCAUCACAGCGUGGCAAAGUGGCUGUGGCUAGUCUGCC, the self-cleavage came out at 0.18. With GGCAGAGCUCAUCACAGCGUGGCAAAGUGGCUGUGGCUAGCCUGCC the figure was 0.04. As to GGCAGAGCUCAUCACAGCGUGGCAAAGUGGCUGUGGCUAGGCUGCC, the self-cleavage is 0.09.

As for GGCAGAGCUCAUCAGAGCGUGGCAAAGUGGCUGUGGCUAGACUGCC, the self-cleavage came out at 0.06. With GGCAGAGCUCAUCAUAGCGUGGCAAAGUGGCUGUGGCUAGACUGCC the figure was 0.1. In the case of GGCAGAGCUCAUCAAAGCGUGGCAAAGUGGCUGUGGCUAGACUGCC, the self-cleavage came out at 0.09. With GGCAGAGCUCAGCACAGCGUGGCAAAGUGGCUGUGGUUAGACUGCC the figure was 0.04.

GGCAGAGCUCAGCACAGCGUGGCAAAGUGGCUGUGGGUAGACUGCC: the self-cleavage was determined as 0.02. On to GGCAGAGCUCAGCACAGCGUGGCAAAGUGGCUGUGGAUAGACUGCC, for which the self-cleavage amounted to 0.04. The result for GGCAGAGCUCAGCACAGCGUGGCAAAGUGGCUGUGGCUACACUGCC reads 0.1.

GGCAGAGCUCAGCACAGCGUGGCAAAGUGGCUGUGGCUAUACUGCC: the self-cleavage amounted to 0.06.
